According to the supplement of paper PMC9112550, “Optimization of the antimicrobial peptide Bac7 by deep mutational scanning” (BMC Biology, 2022):

System: Escherichia coli TOP10
Assay: shrunken log2 fold change of peptide-encoding DNA abundance (4.5 h post-induction vs induction); higher = less antimicrobial activity (less host growth inhibition)
Settings: time post-induction: 4.5 h; library: site-saturation at positions 5, 18, 19, 20
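Also: peptides expressed intracellularly from a pBAD plasmid library in pooled LB shake-flask culture, induced with 0.3% L-arabinose, DNA abundance read by NGS, three biological replicates, DESeq2 with apeglm shrinkage.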

Sequence	shrunken log2 fold change
RRIRPRPPRLPRPRPRPCITPRP	-0.373
RRIRNRPPRLPRPRPRPCCTPRP	2.47
RRIRFRPPRLPRPRPRPMEKPRP	0.273
RRIRARPPRLPRPRPRPLRKPRP	0.62
RRIRLRPPRLPRPRPRPDQTPRP	0.0206
RRIRRRPPRLPRPRPRPQSIPRP	-0.0196
RRIRCRPPRLPRPRPRPMFNPRP	-0.848
RRIRCRPPRLPRPRPRPNDWPRP	-0.166
RRIRHRPPRLPRPRPRPSTEPRP	-0.168
RRIRKRPPRLPRPRPRPWKKPRP	0.0118
RRIRCRPPRLPRPRPRPIIWPRP	-0.178
RRIRWRPPRLPRPRPRPWEVPRP	-0.0113
RRIRFRPPRLPRPRPRPGDIPRP	0.0113
RRIRTRPPRLPRPRPRPGIYPRP	-0.279
RRIRMRPPRLPRPRPRPIRRPRP	-0.168
RRIRNRPPRLPRPRPRPQVMPRP	0.06
RRIRLRPPRLPRPRPRPCCGPRP	-0.00366
RRIRYRPPRLPRPRPRPRKRPRP	0.266
RRIRPRPPRLPRPRPRPVQFPRP	0.197
RRIRWRPPRLPRPRPRPKIMPRP	-0.198
RRIRFRPPRLPRPRPRPRVQPRP	0.263
RRIRNRPPRLPRPRPRPYCPPRP	-0.187
RRIRLRPPRLPRPRPRPHVQPRP	-0.528
RRIRQRPPRLPRPRPRPDQNPRP	-0.377
RRIRRRPPRLPRPRPRPVEEPRP	0.105

Sequence	shrunken log2 fold change
RRIRMRPPRLPRPRPRPCQNPRP	0.0761
RRIRGRPPRLPRPRPRPAKDPRP	1.84
RRIRNRPPRLPRPRPRPFTMPRP	-0.149
RRIRERPPRLPRPRPRPVIFPRP	-0.392
RRIRQRPPRLPRPRPRPNCFPRP	0.0427
RRIRTRPPRLPRPRPRPCYYPRP	0.0075
RRIRFRPPRLPRPRPRPDTDPRP	0.479
RRIRDRPPRLPRPRPRPNIFPRP	-0.0871
RRIRTRPPRLPRPRPRPGHFPRP	-0.215
RRIRPRPPRLPRPRPRPESAPRP	0.396
RRIRYRPPRLPRPRPRPSGIPRP	-0.119
RRIRGRPPRLPRPRPRPHGEPRP	0.164
RRIRVRPPRLPRPRPRPMKCPRP	-0.00104
RRIRDRPPRLPRPRPRPAEIPRP	0.184
RRIRIRPPRLPRPRPRPKVLPRP	-0.0165
RRIRCRPPRLPRPRPRPMTEPRP	-0.123
RRIRRRPPRLPRPRPRPNEPPRP	0.317
RRIRQRPPRLPRPRPRPACNPRP	0.0438
RRIRGRPPRLPRPRPRPGAFPRP	0.773
RRIRQRPPRLPRPRPRPHTVPRP	-0.484
RRIRMRPPRLPRPRPRPRIPPRP	0.199
RRIRPRPPRLPRPRPRPGWYPRP	0.075
RRIRIRPPRLPRPRPRPEFCPRP	-0.0252
RRIRERPPRLPRPRPRPFKFPRP	-0.0774
RRIRIRPPRLPRPRPRPFHEPRP	-0.0627

Sequence	shrunken log2 fold change
RRIRHRPPRLPRPRPRPNQFPRP	-0.789
RRIRNRPPRLPRPRPRPCGPPRP	-0.0549
RRIRARPPRLPRPRPRPGCHPRP	0.265
RRIRGRPPRLPRPRPRPHCLPRP	0.196
RRIRWRPPRLPRPRPRPRVYPRP	-0.401
RRIRVRPPRLPRPRPRPHMQPRP	0.0906
RRIRYRPPRLPRPRPRPKLHPRP	-0.431
RRIRGRPPRLPRPRPRPSYAPRP	0.316
RRIRMRPPRLPRPRPRPSRYPRP	-0.173
RRIRWRPPRLPRPRPRPRGTPRP	0.873
RRIRIRPPRLPRPRPRPFAYPRP	-0.396
RRIRQRPPRLPRPRPRPWIGPRP	-0.013
RRIRCRPPRLPRPRPRPWCLPRP	-0.339
RRIRGRPPRLPRPRPRPKGNPRP	0.598
RRIRARPPRLPRPRPRPWRHPRP	0.333
RRIRWRPPRLPRPRPRPCGHPRP	0.108
RRIRGRPPRLPRPRPRPGPRPRP	1.1
RRIRTRPPRLPRPRPRPHFAPRP	-0.227
RRIRLRPPRLPRPRPRPSMYPRP	-0.261
RRIRSRPPRLPRPRPRPPPDPRP	0.848
RRIRLRPPRLPRPRPRPTGGPRP	0.621
RRIRWRPPRLPRPRPRPQFPPRP	0.0157
RRIRWRPPRLPRPRPRPYIPPRP	-1.15
RRIRERPPRLPRPRPRPFKIPRP	-0.0307
RRIRPRPPRLPRPRPRPSPFPRP	-0.0752
